T1: Gnd1 (6PGDH/Gnd1) (Saccharomyces cerevisiae, UniProt P38720)
T1 construct: full length, 489 residues; pET28a-derived vector, E. coli Rosetta (DE3); homodimer; residues 1-476 seen in crystal
T1 sequence (P38720 1-489): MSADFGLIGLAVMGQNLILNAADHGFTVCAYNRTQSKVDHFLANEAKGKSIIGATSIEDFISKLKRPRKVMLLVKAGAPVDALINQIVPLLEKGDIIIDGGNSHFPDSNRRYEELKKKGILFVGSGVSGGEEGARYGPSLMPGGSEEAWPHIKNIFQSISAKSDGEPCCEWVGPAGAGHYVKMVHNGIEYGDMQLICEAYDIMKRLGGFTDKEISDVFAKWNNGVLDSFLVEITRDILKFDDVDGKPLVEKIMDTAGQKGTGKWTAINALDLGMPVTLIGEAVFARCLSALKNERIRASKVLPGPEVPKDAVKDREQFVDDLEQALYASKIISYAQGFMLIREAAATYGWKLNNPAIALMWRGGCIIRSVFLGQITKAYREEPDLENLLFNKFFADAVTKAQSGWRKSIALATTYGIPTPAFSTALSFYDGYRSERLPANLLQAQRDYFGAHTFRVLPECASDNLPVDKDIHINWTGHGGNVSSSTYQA

B1: Gnd1ΔC39 (domain or fragment, S. cerevisiae, UniProt P38720 1-450, looked up)
chain: MSADFGLIGLAVMGQNLILNAADHGFTVCAYNRTQSKVDHFLANEAKGKSIIGATSIEDFISKLKRPRKVMLLVKAGAPVDALINQIVPLLEKGDIIIDGGNSHFPDSNRRYEELKKKGILFVGSGVSGGEEGARYGPSLMPGGSEEAWPHIKNIFQSISAKSDGEPCCEWVGPAGAGHYVKMVHNGIEYGDMQLICEAYDIMKRLGGFTDKEISDVFAKWNNGVLDSFLVEITRDILKFDDVDGKPLVEKIMDTAGQKGTGKWTAINALDLGMPVTLIGEAVFARCLSALKNERIRASKVLPGPEVPKDAVKDREQFVDDLEQALYASKIISYAQGFMLIREAAATYGWKLNNPAIALMWRGGCIIRSVFLGQITKAYREEPDLENLLFNKFFADAVTKAQSGWRKSIALATTYGIPTPAFSTALSFYDGYRSERLPANLLQAQRDYFG
notes: 6-phosphogluconate dehydrogenase Gnd1, S. cerevisiae, ORF YHR183W/GND1, residues 1-450 of 489 (C-terminal 39 residues deleted); Cloned into the pET28a-derived vector and purified as the full-length protein; also called Gnd1 without the C-terminal 39 residues; source: E. coli Rossetta (DE3), purified (Ni2+ chromatography, Superdex 200 gel filtration)
B2: Saccharomyces cerevisiae 6-phosphogluconate dehydrogenase Gnd1 (enzyme, S. cerevisiae, UniProt P38720 1-489, looked up)
chain: T1 sequence (P38720 1-489)
notes: 6-phosphogluconate dehydrogenase Gnd1, S. cerevisiae strain S288C, ORF YHR183W/GND1, 489 residues; residues 1-476 are seen in the crystal structure; The asymmetric unit holds one monomer (final model 1-476 for one monomer); the dimer is described as the biological unit; also called 6PGDH/Gnd1; 6PGDH
B3: Gnd1ΔC35 (domain or fragment, S. cerevisiae, UniProt P38720 1-454, looked up)
chain: MSADFGLIGLAVMGQNLILNAADHGFTVCAYNRTQSKVDHFLANEAKGKSIIGATSIEDFISKLKRPRKVMLLVKAGAPVDALINQIVPLLEKGDIIIDGGNSHFPDSNRRYEELKKKGILFVGSGVSGGEEGARYGPSLMPGGSEEAWPHIKNIFQSISAKSDGEPCCEWVGPAGAGHYVKMVHNGIEYGDMQLICEAYDIMKRLGGFTDKEISDVFAKWNNGVLDSFLVEITRDILKFDDVDGKPLVEKIMDTAGQKGTGKWTAINALDLGMPVTLIGEAVFARCLSALKNERIRASKVLPGPEVPKDAVKDREQFVDDLEQALYASKIISYAQGFMLIREAAATYGWKLNNPAIALMWRGGCIIRSVFLGQITKAYREEPDLENLLFNKFFADAVTKAQSGWRKSIALATTYGIPTPAFSTALSFYDGYRSERLPANLLQAQRDYFGAHTF
notes: 6-phosphogluconate dehydrogenase Gnd1, S. cerevisiae, ORF YHR183W/GND1, residues 1-454 of 489 (C-terminal 35 residues deleted); Cloned into the pET28a-derived vector and purified as the full-length protein; also called Gnd1 without the C-terminal 35 residues; source: E. coli Rossetta (DE3), purified (Ni2+ chromatography, Superdex 200 gel filtration)
B4: Gnd1ΔC53 (domain or fragment, S. cerevisiae, UniProt P38720 1-436, looked up)
chain: MSADFGLIGLAVMGQNLILNAADHGFTVCAYNRTQSKVDHFLANEAKGKSIIGATSIEDFISKLKRPRKVMLLVKAGAPVDALINQIVPLLEKGDIIIDGGNSHFPDSNRRYEELKKKGILFVGSGVSGGEEGARYGPSLMPGGSEEAWPHIKNIFQSISAKSDGEPCCEWVGPAGAGHYVKMVHNGIEYGDMQLICEAYDIMKRLGGFTDKEISDVFAKWNNGVLDSFLVEITRDILKFDDVDGKPLVEKIMDTAGQKGTGKWTAINALDLGMPVTLIGEAVFARCLSALKNERIRASKVLPGPEVPKDAVKDREQFVDDLEQALYASKIISYAQGFMLIREAAATYGWKLNNPAIALMWRGGCIIRSVFLGQITKAYREEPDLENLLFNKFFADAVTKAQSGWRKSIALATTYGIPTPAFSTALSFYDGYRSER
notes: 6-phosphogluconate dehydrogenase Gnd1, S. cerevisiae, ORF YHR183W/GND1, residues 1-436 of 489 (C-terminal 53 residues, the entire C-terminal tail, deleted); Cloned into the pET28a-derived vector and purified as the full-length protein; also called Gnd1 without the C-terminal 53 residues; source: E. coli Rossetta (DE3), purified (Ni2+ chromatography, Superdex 200 gel filtration)

Tests used:
Gnd1 (6PGDH/Gnd1) = target: T1, Gnd1 (6PGDH/Gnd1); assay: X-ray crystal structure, […] Å; assay type: binding; conditions: crystallised from 1.28 M tri-sodium citrate pH 6.5; two citrates per monomer in the 6-phosphogluconate site, contacts from both chains
[1] = target: the molecule itself; assay: SEC; dimer found 'through purification and crystallization'; purification by Ni2+ chromatography and gel filtration on Superdex 200 (20 mM Tris-HCl pH 8.0, 200 mM NaCl, 20 mM β-mercaptoethanol); 'homodimer in solution'
[2] = target: the molecule itself; assay: crystal structure; hanging-drop vapour diffusion at 15°C, 1.28 M tri-sodium citrate pH 6.5; 2.37 Å, molecular replacement; two citrate molecules bound to each monomer
purified protein = substrate: NC(=O)c1ccc[n+]([C@@H]2O[C@H](COP(=O)(O)OP(=O)(O)OC[C@H]3O[C@@H](n4cnc5c(N)ncnc54)[C@H](OP(=O)(O)O)[C@@H]3O)[C@@H](O)[C@H]2O)c1; assay: purified protein; conditions: co-substrate 6-phosphogluconate (0.1-0.5 mM, varied), Gly-Gly 50 mM pH 7.5, MgCl2 10 mM, 28°C, ionic strength 0.03

Molecule	stoichiometry N [1]	further results
O=C(O)CC(O)(CC(=O)O)C(=O)O [citrate]	–	X-ray crystal structure, 2.37 Å (Gnd1 (6PGDH/Gnd1)): two citrate molecules were bound to the active site of each Gnd1 monomer
B1	2	–
B2	–	stoichiometry N [2]: 2; Km (purified protein): 35 ± 6 µM
B3	2	–
B4	2	–

Reference: article PMC1919378 (BMC Structural Biology, 2007)
